# Laboratory results published in paper PMC3605307.
# Legend:
# [1] = target: Human CD155-Fc fusion protein (human) (UniProt P15151); assay: SPR
# [2] = target: Human TRAIL-R2-Fc D109A together with E78A (human) (UniProt O14763); assay: SPR
# [3] = target: Human TRAIL-R2-Fc D148A (human) (UniProt O14763); assay: SPR
# [4] = target: Human TRAIL-R2-Fc F112A (human) (UniProt O14763); assay: SPR
# [5] = target: Human TRAIL-R2-Fc V167A (human) (UniProt O14763); assay: SPR
# [6] = target: Human TRAIL-R2-Fc double mutation L110A and L114A (human) (UniProt O14763); assay: SPR
# [7] = target: Human TRAIL-R2-Fc fusion protein (wild type) (human) (UniProt O14763); assay: SPR
# [8] = target: TRAIL-R1-Fc fusion protein (UniProt O00220); assay: SPR
# TRAIL-R1-Fc fusion protein, sequence (O00220 24-239): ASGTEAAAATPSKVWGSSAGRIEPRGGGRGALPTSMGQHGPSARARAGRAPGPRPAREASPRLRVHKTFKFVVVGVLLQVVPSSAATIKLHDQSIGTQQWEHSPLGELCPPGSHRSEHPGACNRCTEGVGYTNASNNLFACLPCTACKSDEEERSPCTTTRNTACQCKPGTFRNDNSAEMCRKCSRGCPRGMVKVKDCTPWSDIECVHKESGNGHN
# [9] = target: Recombinant UL141 ectodomain (soluble, released from the Fc fusion) (human cytomegalovirus (HCMV), FIX strain) (UniProt Q6RJQ3); assay: SEC; size-exclusion elution profiles of the purified proteins against marker proteins
# [10] = target: TRAIL-R1 ECD (Homo sapiens) (UniProt O00220); assay: SPR; conditions: cited from earlier work
# TRAIL-R1 ECD (Homo sapiens), sequence (O00220 24-239): as above
# [11] = target: TRAIL-R2 ECD (Homo sapiens) (UniProt O14763); assay: SPR; conditions: cited from earlier work
# [12] = target: human TRAIL-R2-Fc E78A/D109A (human) (UniProt O14763); assay: SPR
# [13] = target: human TRAIL-R2-Fc K155A (human) (UniProt O14763); assay: SPR
# [14] = target: human TRAIL-R2-Fc L110A/L114A (human) (UniProt O14763); assay: SPR
# [15] = target: human TRAIL-R2-Fc M152A (human) (UniProt O14763); assay: SPR
# [16] = target: human TRAIL-R2-Fc M152A/R154A/K155A (human) (UniProt O14763); assay: SPR
# [17] = target: human TRAIL-R2-Fc P150A (human) (UniProt O14763); assay: SPR
# [18] = target: human TRAIL-R2-Fc R154A (human) (UniProt O14763); assay: SPR
# Human CD155-Fc fusion protein (human), sequence (P15151 21-343): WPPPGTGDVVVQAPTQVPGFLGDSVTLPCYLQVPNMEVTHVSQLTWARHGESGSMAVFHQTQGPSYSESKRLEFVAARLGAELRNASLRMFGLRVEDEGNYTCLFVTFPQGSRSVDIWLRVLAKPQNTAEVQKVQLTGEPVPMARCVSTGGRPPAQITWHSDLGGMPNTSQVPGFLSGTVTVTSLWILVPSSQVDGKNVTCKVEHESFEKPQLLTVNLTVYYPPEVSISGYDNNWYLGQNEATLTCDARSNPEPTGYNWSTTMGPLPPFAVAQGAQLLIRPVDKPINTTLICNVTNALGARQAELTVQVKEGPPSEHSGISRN
substance,measurement,setting,value
"Recombinant UL141 ectodomain (soluble, released from the Fc fusion) (from UniProt Q6RJQ3 37-278) (domain or fragment)",K Dave,[1],2 nM
same,Kd,[1],1.97 nM
same,koff,[1],0.000346 s⁻¹
same,kon,[1],176000 M⁻¹ s⁻¹
same,fold reduction of binding affinity against wild type,[2],10 fold
same,Kd,[3],55 nM
same,Kd,[4],630 nM
same,Kd,[5],15 nM
same,Kd,[6],43 nM
same,Kd,[7],5.96 nM
same,koff,[7],7.21e-05 s⁻¹
same,kon,[7],12100 M⁻¹ s⁻¹
same,KDeq,[8],2.27 µM
same,Kd,[8],2330 nM
same,koff,[8],0.014 s⁻¹
same,kon,[8],6020 M⁻¹ s⁻¹
same,stoichiometry N,[9],2
UL141 (from UniProt Q6RJQ3),Kd,[10],2300 nM
same,Kd,[11],6 nM
Pre-formed UL141–TRAIL-R2 complex (from UniProt Q6RJQ3;O14763),K Dave,[1],2 nM
same,Kd,[1],2.19 nM
same,koff,[1],0.000333 s⁻¹
same,kon,[1],152000 M⁻¹ s⁻¹
"HCMV UL141 ectodomain, soluble (released from the thrombin-cleavable Fc fusion) (from UniProt Q6RJQ3 37-278) (domain or fragment)",Kd,[3],55.3 nM
same,koff,[3],0.0013 s⁻¹
same,kon,[3],23500 M⁻¹ s⁻¹
same,Kd,[4],630 nM
same,koff,[4],0.00566 s⁻¹
same,kon,[4],8980 M⁻¹ s⁻¹
same,Kd,[5],15.5 nM
same,koff,[5],0.00048 s⁻¹
same,kon,[5],31000 M⁻¹ s⁻¹
same,Kd,[12],60.4 nM
same,koff,[12],0.00151 s⁻¹
same,kon,[12],25000 M⁻¹ s⁻¹
same,Kd,[13],7.74 nM
same,koff,[13],0.00038 s⁻¹
same,kon,[13],49100 M⁻¹ s⁻¹
same,Kd,[14],42.7 nM
same,koff,[14],0.00064 s⁻¹
same,kon,[14],15000 M⁻¹ s⁻¹
same,Kd,[15],7.49 nM
same,koff,[15],0.000382 s⁻¹
same,kon,[15],51000 M⁻¹ s⁻¹
same,Kd,[16],7.39 nM
same,koff,[16],0.00027 s⁻¹
same,kon,[16],36500 M⁻¹ s⁻¹
same,Kd,[17],8.32 nM
same,koff,[17],0.000391 s⁻¹
same,kon,[17],47000 M⁻¹ s⁻¹
same,Kd,[18],6.26 nM
same,koff,[18],0.000243 s⁻¹
same,kon,[18],38800 M⁻¹ s⁻¹
